Test results taken from patent US20100221329A1 (SYNERGY PHARMACEUTICALS, published 2010).
Bridges are numbered along the chain shown (N, C = ends). Where no end group is shown, it is not given here.

Target: guanylate cyclase C (human, UniProt P25092 24-1073)
Assay: cell-based or functional assay

Sequence of guanylate cyclase C (P25092 24-1073): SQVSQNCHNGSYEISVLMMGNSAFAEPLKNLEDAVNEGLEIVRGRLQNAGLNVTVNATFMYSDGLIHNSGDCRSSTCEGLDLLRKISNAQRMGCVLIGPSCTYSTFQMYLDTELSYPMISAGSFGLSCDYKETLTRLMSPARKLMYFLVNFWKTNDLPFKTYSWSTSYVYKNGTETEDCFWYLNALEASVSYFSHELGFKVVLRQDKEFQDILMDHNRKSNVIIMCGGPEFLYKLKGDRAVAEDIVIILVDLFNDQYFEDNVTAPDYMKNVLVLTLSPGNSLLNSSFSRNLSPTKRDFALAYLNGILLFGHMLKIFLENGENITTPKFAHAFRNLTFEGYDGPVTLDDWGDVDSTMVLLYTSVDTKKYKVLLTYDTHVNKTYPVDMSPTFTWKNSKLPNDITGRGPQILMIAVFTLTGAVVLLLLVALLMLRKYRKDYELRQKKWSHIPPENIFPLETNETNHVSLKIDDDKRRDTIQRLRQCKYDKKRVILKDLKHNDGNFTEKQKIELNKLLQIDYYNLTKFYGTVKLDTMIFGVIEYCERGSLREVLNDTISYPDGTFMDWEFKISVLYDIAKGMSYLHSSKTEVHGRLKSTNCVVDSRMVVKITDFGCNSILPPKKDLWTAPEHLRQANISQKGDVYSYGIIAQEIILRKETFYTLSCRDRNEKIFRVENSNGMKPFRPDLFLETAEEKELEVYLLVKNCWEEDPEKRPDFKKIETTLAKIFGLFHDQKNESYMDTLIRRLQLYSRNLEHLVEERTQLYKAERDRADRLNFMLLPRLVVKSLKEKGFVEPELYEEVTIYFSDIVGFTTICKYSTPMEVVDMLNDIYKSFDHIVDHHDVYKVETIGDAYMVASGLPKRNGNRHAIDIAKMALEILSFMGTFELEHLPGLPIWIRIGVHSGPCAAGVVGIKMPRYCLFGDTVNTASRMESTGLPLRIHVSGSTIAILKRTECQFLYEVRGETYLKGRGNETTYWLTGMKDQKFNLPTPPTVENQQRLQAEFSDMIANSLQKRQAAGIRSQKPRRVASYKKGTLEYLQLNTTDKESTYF

B1: SP-338 (peptide)
peptide: NDECELCVNVACTGC
modifications: disulfide 4-12, 7-15
  stimulation of cGMP synthesis in T84 cells (peptide at 1.0 µM, 30 min), biological activity relative to SP-304: ~80 % of the biological activity of SP-304
